Assay results published in paper PMC3311221 (Nature cell biology, 2011).

B1: polyhistidine-tagged TFG-1 amino-terminus (amino acids 1-195) (domain or fragment, C. elegans, UniProt Q9U1W1 1-195, looked up)
chain: MVHSNGAITSTILKARHADVVRKTSLHHANDLTLIDLVLNVQRLLALPSDANFVLKYKDEEGDLVTLAEDSDLLLALHTSGATLDVTVVVDSRAREAVHDVQKQVEQIKLDVGKLLGALSALDVAQIAEQSNTSVANLSAPKQSHHDNIVFQKSFEAAPPSPVPSEKAELPATIQPSVHEQFNHRPAHVEEEIPL
B2: polyhistidine-tagged full length TFG-1 (natural protein, C. elegans, UniProt Q9U1W1 1-486, looked up)
chain: MVHSNGAITSTILKARHADVVRKTSLHHANDLTLIDLVLNVQRLLALPSDANFVLKYKDEEGDLVTLAEDSDLLLALHTSGATLDVTVVVDSRAREAVHDVQKQVEQIKLDVGKLLGALSALDVAQIAEQSNTSVANLSAPKQSHHDNIVFQKSFEAAPPSPVPSEKAELPATIQPSVHEQFNHRPAHVEEEIPLENHYAPPPHQQIPDDLNTSFSSQPPPPIEQFGAIPPPNATIPSFPTSNAASPPVQEFAPPPPQQQQQQFQAPPPPMASHSSISSTPVQQQGFAPPQQFGGPPPSGPPSEYGGYAPPQQQQQQFGAPPPQGAPQQGFGAPPQGPPQGGPPQGSFGAPPPQQFHAPSPQSFGGPPPPVSSAPGNFAPPPQSGPPGAFAPPPSAFGAPQGPGGPGGYGPPPPGGPGAPGSYGPPQGGPGGFGPPPPGGPGAYGPPPTGFPPVGAPPPGAAGAPGGNPFARGPSATGYRQSPYQQ

Biological target: the molecule itself
Test: SEC + other: glycerol gradient sedimentation

Protein | stoichiometry N
B1 | 8
B2 | 6
